Test results reported in the DeepSol protein solubility set.

Assay: soluble on expression in E. coli; label from the status in PepcDB or PDB records

Soluble on expression in E. coli, not soluble:
MGSDKIHHHHHHMTTNIKTDFSPPATATPVLEMQGIAKRFHGVPALQGVNLTIYPGEVHALMGENGAGKSTLMKILAGAYIADEGEIRINGKGVKITDPGTARQAGINLIYQELNVAPNLTVTENIFMGSELTRGQFLDRKAMELEAQQVLASLGASFAPTDIVGTLAIAEQQQVEIARALKDNSRILVMDEPTAALSDRETERLFEVIRKLRNDGIAIIYISHRMEEIYALADRISVLRDGQYIGSLTREEISPQRLVQMMVGRSMQDFYEHQRQSNPGPVVLEVRNISDGRKVQPASFQLRAGEILGLAGLVGAGRTEVSRLIFGADRKVSGEVFLNGKKLEIHSPSDAIAVGIGYVPEDRKDQGLFLEMSSRKNIGLNRLKQDANLGIVNWGSVNKIATDAVENFHIRLANLEIRAVDLSGGNQQKLLLARWLAINPRVLMLDEPTRGVDIGAKSEIYRIISDLSAQGVAILMVSSELPEIVGLSDRVLVMREGQLVGELDNSIGKEITQENIMHYATGASEVTAS, MGSDKIHHHHHHMTTVLPLDPARYTPHLLHSAERMWPETNCYVDLWIEVLCVLGLPPEAMLGFTLTQDFEGDQFTFFKVPLEDLEALYGIRVTELAIFDRAEAHVAQQISRGRLCLVEMDSYFMPDTAGVGYRQHHGKTTVGVNRLDLAGRSMDYFHNGGFFRLEAEDFDGIWQLAAPETAPFLPYTEFAKFPETRPDETHLRAVAKRLFAFHFARRPQGNPFAGFAEVFPAQVEAIAERPFGYFHTYAFNTLRQFGANFELLASHLKWLAADDRYTNEIAEALRISELAKTVQFQLARAVTRKKFDPLKAALDPAIDAWDRLMTGLADKMA, MGSDKIHHHHHHMTWSATWRLSLELRQLRYLVGVVDAGSVSRAAQSLHVAQPALSAQIARLEEELGARLLIRSVRGVVPTEAGTAVLRQARLILKQVDAIAELAHEADADPTGSVSLGLPWTVRSVVGLPLLHQVRERLPQVRLEIIEGPSPALAMQTAQGKLDLAVVFENTPDNSLVLKPLATESLLLVGQRGSLVGRHNLKLEELAGLPLLMLSRPNGVREDIERQCAKRGIRLKIVAEINAPSLLIDAVRGGLGYSVLPACGIEQACRDGLLDAITLEGGSMQRTAHLGTSKLFALSRAAEHTAALLQESVAHAIGDRRWQATSPNEAD, MGSDKIHHHHHHMTYQAREAGLKEVEQLVHEQAVYQYLQENNEGGQMDKDQMLFLHEAISGSDLTDAAAYRVVSATLYMILAHDTHEKIDEPGDVVKLTRKEQELTVLAGDFYSALYYRTLAELEMIPLLRALQSGVQETNTAKTNIYQLHVATDEEYLSQLTLTNAAIFAKFAKYFMKDETFIALGCQFFLLKRLQTELATYKEIGASRLKRAFDHGYFAKEAVSNFESWLVAIIRDVKSEVERLKTEAEPLSNLLEKRIIEVIND, MGSDKIHHHHHHMVEFQSRIGKDGRLTVMEIPFDARETFQMPKGTIFVCGTINGIPYRGKLLSRGNGKQVLTIDKTLQKGLGYAGQDFPVNVAMACENQAEMVDEEKEAIPRLHSDMEAITAIAGRASVRKYMDKTVEPQKLEVILRAGLSAPSAKNKRPFHFVVVEDKAVLGAWAAGNSNAKMLSHAPCCIVVCGDGNVEGTRDFLVGGCAAATQNMLIAIHALGLGGVWCGVLRGKEWSRQVAADLYLPVKVEPLAVIALGYPTEQEKAPVPWDMKSHIHYERW, MGSDKIHHHHHHMVEKLKPRYSVVWTNKIAEVPQNAWNALAMPLKTPFLEWEWLNNLETSQSATAKTGWLPNHLTLWRDRTLIAAAPLYLKGHSSGEFVFDHQWAELADRIGVQYYPKLLGMTPFTPAEGYRFLIAPGEDEDEITAMMVHEIDTFCSKNRISGCHFLYVDPQWRPMLERHGFTTWLHHSYVWENAGFKTFDDYLKVFNANQRRNIKRERKAVEKAGLRLQPLSGDEIPYSLFPSMYQFYADTCDKFGWWGSKYLTQRFFEQLHNDYRHRVLFVAAYSEEDNSHPLGMSFCLFKGDKLYGRYWGSFQEIDCLHFDACYYAPIEWAIANGIQIFDPGAGGRHKKRRGFPAMPNHSLHRFYNNRLGQIIRPYIKEVNQLEQQEIEAINAELPFSNRDS, MGSDKIHHHHHHMVEQLKPRYSSVWINKIAEVPQDAWDALALPLKTPFLEWDWLNNLETSHSATAKTGWLPNHLTLWRDRTLIAVAPLYIKGHSYGEFVFDHQWAELAERIGVQYYPKLLGMTPFTPAEGYRFLIADGEDEEEITAMMVHEIDSFCVKHNISSCHFLYVDPQWQPVLEKQGFTAWLHHSFIWENSGFQNFDDYLTVFNANQRRNIKRERKAVEKAGLQLQAVTGDAIPKSLFPLMYQFYADTCDKFGWWGSKYLTKQFFEQLHHNYRHRVVFFPAYHEQDPRQPLGMSFCLFKDDRLYGRYWGSFQEIDCLHFDACYYAPIEWAIANGIQSFDPGAGGRHKKRRGFPAAPNYSLHRFYNSRLGQILRPYINEVNQLEEQEIAAINAELPFSQK, MGSDKIHHHHHHMVHVKMKGSKMLFEALLKEGVDTIFGIPGGAIINVYDELCNYEDKINFYLFRHEQGATHAADGYARVTGKPGVVIVTSGPGATNTVTGIATAYMDSIPIVVITGQVPTSFIGTDAFQEVDVTGITMPITKHNHLVTSIEELPYAIKEMFYVATTGRPGPVLLDFPKDIQTAEGEFNYPDTVEIPGYKPTVKGHPKQIKKAVELLKESKRPVVIVGGGANLSGAMDLVNQFIDKFKVPAVSTLMGRGVNPSDEKLYYEGIGMHGTYYGNYAVANADLIIALGVRFSDRILGNPRTFAKNARIVHVDIDPAEIGKNVRVDVPIVGDLKSVLEEFLKYEIETDFSDWIEELQEIKKKYPLTYKRDGKLIKPQYVVEKVNEVFPDDTVVVADVGQNQMWVAQFYKFKHQRSFLCSGGLGTMGYALPAGIGAKIGAPDKEVVVFAGDGGFQMNIQELMTIKRYNLPVKIIVMDNKALGMVRQWQQLFFNCRYSATILSDNPDFAKIAEAVGIKAMRIEKPDQVDEAIEKLAKSKEPMLIHAVVDPAENVLPMVPPGGDVGTPLIEAPYDETFVERVLKVIEESRRGDER, MGSDKIHHHHHHMVIKNIDAATVAKKFLVRGYNIDPKAAELICKSGLFSDELVDKICRIANGGFIIEKSVVEEFLRNLSNLKPATLTPRPEERKVEEVKASCIALKVIKDITGKSSCQGNVEDFLMYFNSRLEKLSRIIRSRVNTTPIAHAGKVRGNVSVVGMVNEVYERGDKCYIRLEDTTGTITCVATGKNAEVARELLGDEVIGVTGLLKGSSLYANRIVFPDVPINGNGEKKRDFYIVFLSDTHFGSKEFLEKEWEMFVRWLKGEVGGKKSQNLAEKVKYIVIAGDIVDGIGVYPGQEDDLAISDIYGQYEFAASHLDEIPKEIKIIVSPGNHDAVRQAEPQPAFEGEIRSLFPKNVEHVGNPAYVDIEGVKVLIYHGRSIDDIISKIPRLSYDEPQKVMEELLKRRHLSPIYGGRTPLAPEREDYLVIEDVPDILHCGHIHTYGTGFYRGVFMVNSSTWQAQTEFQKKVNLNPMPGNVAVYRPGGEVIRLRFYGE, MGSDKIHHHHHHMVKAVVLLSGGLDSATVLAIARQQGYECYALSVSYGQRHGAELAAAKNLARSLGATAHKIIQVDLSTFGGSALIDKEREIPTDGVTPGIPSTYVPARNTIMLSIALAWAEVLGSGDIFIGVNAIDYSGYPDCRPEYIEAFETMANVATKAGIEGTRLAIHAPLMNLSKAEIIKRGGVLGVDYSMTVSCYQADDAGLACGVCDSCRLRRAGFESADVPDVTRYHAGFRQTPAS, MGSDKIHHHHHHMVKKREGDEVQSELMRILAEKQERKENIALVTVISSNSPRGCRAGEMMLVDRFGYIIGDGIGDSLLQENAQREAQICINEGISRRVILPSEEGMTEVFINAFCHRDQLIIVGSGNVALNVYRIASIVGYSITVIDNRAETLSRERFPEAKELLLGDIVELLKAYNIDENTSIVLLSYHHEFDEAALLTVIHSPARYIGIMGNKHKVTAYFSKLNELNIAEELISRVHVPVGIDIGGERAAEIALAVVAEMQAIKYGRAGGFRILQSEITGKVERDELF, MGSDKIHHHHHHMVKLFREKKDMGSPKIQNFKRQTVLHKGQRTRLPATYIAPEDVSIWDIIRPNLGKDFSRFTVPVFMNEPLSFLQRLSENVQYNYLLEKAAKCSDDMERIEFYEFRFFFNWKKLKHQMKLSNSAHKTGFTFANSINYVAAFALATVSANHKRLSKPFNPLLLETFELERNGVRFLAEQVSHHPPISAVYAESDEFTVEGTVEPTLGFWMTKLLANPHAHLKLTFKKTGETYSWSAPKCAIYNVIMGKMYMNFTSHMKIESSGTYDAVFSFDNKGYYNHKGGDVHVEGHIFEGKNKIKALYGNWTLFLASCDNEDFKHHRKEYLRMFNETVSEKDQGPVVPGSKILWVSNQIPKLFDDQFHFTNFTLSLNEMYPGMSDTVAPTDSRRRKDMKALEDGKNDEAEEFKHKYEEEQRERRTTKTGDVPMWFAKNDEGHWAYKGGYWDRDYSNCLELFESLENSSTNSSNSSISSVD, MGSDKIHHHHHHMVKRKNVAVIGGGVSGLAAAKAFDERGHRVTGFERSHDFGGVWELSRSYPDVQTQSPKDLYCYTDLPMPDAYPEWPKGPQVHAYLHSYANKHNLPRLFQLNTNILSMDRRADGQPGWTLTIEAAGRVRKEDFDFVAICTGQFSDKNILTHPGQEAFVAGGGEVIHSSEYTDSEMARGKHVVVLGGSKSATDIVVNAARSGAKSVTMVYRENVWRVPYFVGGINFKRLLYMRAQEQQFNQWGKSPLQRVIAALLKPLVWANFRGLETLLKAQLGLKKWNMVPDTPIEKEASCSLPIVTPGLFESFRDGTVKPIQGTYDRYEDGHVVLTTGDRVPCDLSVLAVGWKLGIPYLAQEYRDKLIEADGQYRVYRLAVNPDLPDMGFVGFNSSFCTILSAEMIANWLVRFADGQLAHQPSAQEMNANIEMMLNWRRKERPAAQVYGGLCSAPFHFKHFDELLADMGAGVRKRANPLAEQFSYPDARAYGRFLASTPQYQAG, MGSDKIHHHHHHMVKTSQLPAVDRTVPLEQISQFAEKVTIFTDELRETILAPRPRKTAPIFKTGEIAEMCNISHSQVQYLATKGDGELPPGTAAGTGRTRTFTLQEARTWVQKVSDIYQTPLVTGTREPEGKIIITAQLKGGSAKTTTTMCLAQGLTLRGRKVLVVDLDPQASLSELCGLYAEKDVSPEDSVLPYIYDQQIEGGLQSRVQSTYWDGLDLIPAHTELIGAEFHLPAMQKIKPGFRFWTVLREGLEPLRKHYDYILMDTSPSLSYMNLNALLAADAMVMPMVPENLDFISSLSFWRLFSDVSKSFIKYEADKKYDFVSLLLSRVDYGRTSSAPIVRAWAQSAYESWLHSIEVPASSVMSTGALAFSTVFDVSSTHSAAKSLQRVRQPIVDYCRWLDEIYAEKWRSAQ, MGSDKIHHHHHHMVLLETNRLRLQTIDIPLLDAASKQDHQAIKELGYETNGEWPNSDFFEAIPYFREILVKNNGTKGFDSWIIVKKDNYEIVGGTGFLGDPDENGMIEIGFATNKSHRRKGYCVEAAQKLINWALSRETVSRITARCEHDNLGSQKTLEKLGFILNHKSAEYKHWIYVTK, MGSDKIHHHHHHMVMLKMKKTIAYYRSSTDLQENSIEMQQIKAFEYSMKKRITIDEEYVDKDVSARKKTLMQRPGMNKLMKEIEAGVVGSIIVYKRDRFARKLQEHMQLYRLFQEYDIDVYFSSDSEVQMNYSPIGEYIEAILGSICENEGSLIAQRIQETKIAKFLSGKYAGNLPYGYEKGEPNADGQVNILQVSHEIEVVKEIYNALLNKECKSIQELCNDLNEKYKTEETKDWDQSKVVNIVKNPIYHGLRVMNFGSKEYKKAYKNIKVVEKTDWDIANEQLDKMIVKRETGKETIQFLLENILYCHECQKPLIAKKRMRSYQDYYIYECKEHDVCVEAGYIEVEILKHAKTFFHRLLDENFNELYERSTYQNVRKIKKLIGSQEMIIKGVTKKVGKLIDQWLNCQKMQREHEGNDCAKCQSNQHIGEIKEANEILKSEKRKLQHLDMRLYEIKNFKEKAKEWITHLECPKDILLLEKEERKRFYRDMIHCIQVDSWEYHIVFKHPFMLIQEVHQNSETV
